Results on 8 molecules are retold here after patent US20200231693A1 (Janssen / Centocor, published 2020).

By EC50 is commonly meant the concentration at which the effect is half-maximal. Lower therefore signals a more potent agent.

One data set has as its target T1, human OX40 (CD134) (human, UniProt P43489 29-277).
T1 construct: also called HEK-Blue: OX40 cells; transfected OX40 receptor
T1 sequence: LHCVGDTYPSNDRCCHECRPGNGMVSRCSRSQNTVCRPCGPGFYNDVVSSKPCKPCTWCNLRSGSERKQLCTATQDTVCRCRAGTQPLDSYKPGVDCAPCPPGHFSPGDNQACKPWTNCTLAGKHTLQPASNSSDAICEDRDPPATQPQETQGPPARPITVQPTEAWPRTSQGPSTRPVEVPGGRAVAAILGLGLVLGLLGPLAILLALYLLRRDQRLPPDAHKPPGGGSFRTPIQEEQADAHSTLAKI
Description: NanoBRET PPI assay on HEK-Blue: OX40 cells (discussion). The protocol: The next day, equal concentrations of Nanoluc-tagged antibody (donor) and Halotag-tagged antibody (acceptor) in 50 μl assay medium (Opti-MEM I reduced serum medium, no phenol red plus 4% FBS) were applied to the cells. Halotag 618 ligand diluted 1:1000 in 50 μl assay medium were added in experimental well, and a no ligand control well was also set up by diluting DMSO 1:1000 in assay medium. After incubation at 37° C. for 30 min, the cells were washed twice with assay medium and resuspended in 100 μl assay medium. 25 μl Nano-Glo substrate, diluted 1:200 in assay medium without FBS, was added to each well. After shaking for 30 seconds, the donor emission (460 nm) and acceptor emission (618 nm) were measured by Envision. Raw NanoBRET ratio values with milliBRET units (mBU) were calculated as RawBRET=618 nmEm/460 nmEm*1000. To factor in donor-contributed background or bleed through, Corrected NanoBRET ratio values with milliBRET units was calculated as CorrectedBRET=RawBRETₑₓₚₑᵣᵢₘₑₙₜₐₗ sample−RawBRET_{no-ligand control sample}, which reflects energy transfer from a bioluminescent protein donor to a fluorescent protein acceptor due to protein-protein interactions.
To evaluate whether the engineered antibodies multimerize upon binding antigens at the cell surface a NanoBRET™ protein-protein interaction (PPI) assay was conducted. This assay is a proximity-based assay that detects protein-protein interactions by measuring energy transfer from a bioluminescent protein donor to a fluorescent protein acceptor. […] NanoBRET PPI assays were performed by applying the donor and acceptor antibodies to HEK-Blue: OX40 cells and the calculated corrected NanoBRET ratios reflect the association of multimerized antibody.
(In general: In BRET a luciferase serves as donor, and the signal depends on an acceptor being close.)

Data set [1] deals with the molecule itself. Description: SEC, self-association in solution.
A further data set addresses human FcγRI (NM_000566) (human, UniProt P12314 16-374). Description: flow cytometry on Expi293F cells transfected with FcγRI. The procedure:
(§1) Plasmids expressing cDNAs encoding human FcγRI (NM_000566) (SEQ ID NO: 59), FcγRIIA (NM_021642) (SEQ ID NO: 60), FcγRIIB (NM_004001) (SEQ ID NO: 61), and FcγRIIIA (NM_000569) (SEQ ID NO: 62) (Origene) were transiently transfected into Expi293F cells by Expifectmine293 transfection kit (Life Technologies). Flow cytometry assays were performed 48 h after transfection.
(§2) 2×10⁵ cells per well were seeded in 96-well plate and blocked in BSA Stain Buffer (BD Biosciences, San Jose, USA) for 30 min at 4° C. Cells were incubated with test antibody on ice for 1.5 hour at 4° C. After being washed twice with BSA stain buffer, the cells were incubated with R-PE labeled anti-human or anti-mouse IgG secondary antibody (Jackson Immunoresearch Laboratories) for 45 min at 4° C. […] PE and DRAQ7 signals of the stained cells were detected by Miltenyi MACSQuant flow cytometer (Miltenyi Biotec, Auburn, USA) using B2 and B4 channel respectively. Live cells were gated on DRAQ7 exclusion and the geometric mean fluorescence signals were determined for at least 10,000 live events collected. […] Data was plotted as the logarithm of antibody concentration versus mean fluorescence signals. Nonlinear regression analysis was performed by GraphPad Prism 6 (GraphPad Software, Inc.) and EC₅₀ values were calculated.
(A flow cytometer gives signals particle by particle.)

In data set [2] the target is human FcγRIIIA (NM_000569) (human, UniProt P08637 17-254). Kind of data set: flow cytometry on Expi293F cells transfected with FcγRIIIA. The procedure: as §1
Chain of human FcγRIIIA (NM_000569) (P08637 17-254 limits assumed): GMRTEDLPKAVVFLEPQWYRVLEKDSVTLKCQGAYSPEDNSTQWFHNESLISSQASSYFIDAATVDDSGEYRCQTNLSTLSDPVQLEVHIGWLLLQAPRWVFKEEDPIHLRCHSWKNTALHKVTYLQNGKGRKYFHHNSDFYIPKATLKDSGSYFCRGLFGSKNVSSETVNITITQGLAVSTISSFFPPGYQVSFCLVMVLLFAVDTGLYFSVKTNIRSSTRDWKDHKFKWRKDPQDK
(§3) 2×10⁵ cells per well were seeded in 96-well plate and blocked in BSA Stain Buffer (BD Biosciences, San Jose, USA) for 30 min at 4° C. Cells were incubated with test antibody on ice for 1.5 hour at 4° C. After being washed twice with BSA stain buffer, the cells were incubated with R-PE labeled anti-human or anti-mouse IgG secondary antibody (Jackson Immunoresearch Laboratories) for 45 min at 4° C. The cells were washed twice in stain buffer and then resuspended in 150 μL of Stain Buffer containing 1:200 diluted DRAQ7 live/dead stain (Cell Signaling Technology, Danvers, USA). PE and DRAQ7 signals of the stained cells were detected by Miltenyi MACSQuant flow cytometer (Miltenyi Biotec, Auburn, USA) using B2 and B4 channel respectively. Live cells were gated on DRAQ7 exclusion and the geometric mean fluorescence signals were determined for at least 10,000 live events collected. FlowJo software (Tree Star) was used for analysis. Data was plotted as the logarithm of antibody concentration versus mean fluorescence signals. Nonlinear regression analysis was performed by GraphPad Prism 6 (GraphPad Software, Inc.) and EC₅₀ values were calculated.

A further data set addresses T2, FcγRIIB on Raji cells (human, UniProt P31994 43-310).
T2 sequence (looked up): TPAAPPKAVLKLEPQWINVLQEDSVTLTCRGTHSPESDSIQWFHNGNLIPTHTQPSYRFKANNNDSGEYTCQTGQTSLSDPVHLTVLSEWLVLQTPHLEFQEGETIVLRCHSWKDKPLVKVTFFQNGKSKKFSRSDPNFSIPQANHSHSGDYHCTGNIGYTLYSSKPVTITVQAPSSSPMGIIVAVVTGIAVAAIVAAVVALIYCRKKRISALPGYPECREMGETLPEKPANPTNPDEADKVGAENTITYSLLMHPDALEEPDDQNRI
Kind of data set: cell-based or functional assay.

Data set [3] has as its target T3, human FcγRIIB (NM_004001) (human, UniProt P31994 43-310).
T3 construct: also called FcγRIIB expressed on transfected Expi293F cells
T3 sequence: T2 sequence (looked up)
Kind of data set: flow cytometry on Expi293F cells transfected with FcγRIIB. The protocol:
as §1, §3

Data set [4] has as its target T3, human FcγRIIB (NM_004001). Description: binding to transfected Expi293F cells (data not shown).
Data set [5] deals with T4, human FcγRIIA (NM_021642) (human, UniProt P12318 36-317).
T4 construct: also called FcγRIIA^R131; R131 allotype of FcγRIIA
T4 sequence: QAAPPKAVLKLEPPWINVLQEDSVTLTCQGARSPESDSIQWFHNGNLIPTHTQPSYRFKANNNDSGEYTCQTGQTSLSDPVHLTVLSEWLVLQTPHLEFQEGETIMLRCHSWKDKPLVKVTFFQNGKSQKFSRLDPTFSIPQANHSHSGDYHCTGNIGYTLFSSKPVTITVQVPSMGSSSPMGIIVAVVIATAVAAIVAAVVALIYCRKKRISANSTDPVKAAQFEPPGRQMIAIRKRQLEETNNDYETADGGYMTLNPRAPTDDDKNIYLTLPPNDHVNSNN
Kind of data set: flow cytometry on Expi293F cells transfected with FcγRIIA (R131 allotype per text). The procedure:
as §1, §2

Chain of human FcγRI (NM_000566) (P12314 16-374 limits assumed): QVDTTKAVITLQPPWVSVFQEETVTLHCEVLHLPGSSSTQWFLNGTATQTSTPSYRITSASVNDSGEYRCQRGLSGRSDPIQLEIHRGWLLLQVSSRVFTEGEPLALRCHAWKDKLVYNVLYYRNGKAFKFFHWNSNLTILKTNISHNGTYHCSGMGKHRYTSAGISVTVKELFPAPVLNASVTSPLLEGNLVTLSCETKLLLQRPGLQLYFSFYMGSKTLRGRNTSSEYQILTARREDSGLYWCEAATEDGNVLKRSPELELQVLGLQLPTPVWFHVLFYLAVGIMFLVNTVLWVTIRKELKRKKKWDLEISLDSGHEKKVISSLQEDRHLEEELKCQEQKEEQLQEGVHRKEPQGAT

B1: OX40SF2IgG1E345R/E430G (antibody)
heavy: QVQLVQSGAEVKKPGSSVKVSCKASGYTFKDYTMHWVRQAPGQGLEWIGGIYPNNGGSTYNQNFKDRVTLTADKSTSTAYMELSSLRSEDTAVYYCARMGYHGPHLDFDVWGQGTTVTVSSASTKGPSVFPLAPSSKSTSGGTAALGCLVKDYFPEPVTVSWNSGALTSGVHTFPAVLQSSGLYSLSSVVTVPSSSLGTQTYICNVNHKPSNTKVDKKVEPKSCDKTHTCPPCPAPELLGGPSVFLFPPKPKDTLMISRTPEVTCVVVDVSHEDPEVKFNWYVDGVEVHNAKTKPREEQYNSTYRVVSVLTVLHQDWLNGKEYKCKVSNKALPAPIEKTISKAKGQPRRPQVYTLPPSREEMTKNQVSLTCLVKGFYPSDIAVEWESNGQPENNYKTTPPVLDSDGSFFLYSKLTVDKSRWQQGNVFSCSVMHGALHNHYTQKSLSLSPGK
VL: DIQMTQSPSSLSASVGDRVTITCKASQDVGAAVAWYQQKPGKAPKLLIYWASTRHTGVPSRFSGSGSGTDFTLTISSLQPEDFATYYCQQYINYPLTFGGGTKVEIK
notes: Full IgG1; In the NanoBRET assay the light chains carried a C-terminal Nanoluc or HaloTag
On to B1, for which the binding result with human OX40 (CD134) is “binds”.

B2: OX40SF2IgG1 (antibody)
heavy: not shown
VL: B1 VL
notes: Full IgG1, wild-type Fc; also called SF2 antibody with native human IgG1 Fc; wild-type IgG1
Turning to B2, in data set [1], the binding result is listed as “no binding”. Also, the EC50 came out at 0.326 µg/mL with human FcγRI (NM_000566) and 0.744 µg/mL in data set [2].

B3: OX40SF2IgG1V12 (antibody, name in EU numbering)
heavy: QVQLVQSGAEVKKPGSSVKVSCKASGYTFKDYTMHWVRQAPGQGLEWIGGIYPNNGGSTYNQNFKDRVTLTADKSTSTAYMELSSLRSEDTAVYYCARMGYHGPHLDFDVWGQGTTVTVSSASTKGPSVFPLAPSSKSTSGGTAALGCLVKDYFPEPVTVSWNSGALTSGVHTFPAVLQSSGLYSLSSVVTVPSSSLGTQTYICNVNHKPSNTKVDKKVEPKSCDKTHTCPPCPAPDLLGDDSVFLFPPKPKDTLMISRTPEVTCVVVDVSDEDGEVKFNWYVDGVEVHNAKTKPREEQYNSTYRVVSVLTVLHQDWLNGKEYKCKVSNKALPRPIEKTISKAKGQPREPQVYTLPPSRDELTKNQVSLTCLVKGFYPSDIAVEWESNGQPENNYKTTPPVLDSDGSFFLYSKLTVDKSRWQQGNVFSCSVMHEALHNHYTQKSLSLSPGK
VL: B1 VL
notes: Full IgG1; Positions are EU Index
For the molecule B3, in the data set with FcγRIIB on Raji cells, the “HEK-Blue NFκB reporter assay, co-culture with Raji cells; efficacy at 1000 ng/ml against OX40 ligand at the same concentration” value is more than 2 fold. The EC50 in data set [3] came to 0.502 µg/mL. In addition, the binding result in data set [2] is given as “no binding (tested: 1 ng/ml to 10000 ng/ml)”.

B4: OX40SF2IgG1E345R (antibody)
heavy: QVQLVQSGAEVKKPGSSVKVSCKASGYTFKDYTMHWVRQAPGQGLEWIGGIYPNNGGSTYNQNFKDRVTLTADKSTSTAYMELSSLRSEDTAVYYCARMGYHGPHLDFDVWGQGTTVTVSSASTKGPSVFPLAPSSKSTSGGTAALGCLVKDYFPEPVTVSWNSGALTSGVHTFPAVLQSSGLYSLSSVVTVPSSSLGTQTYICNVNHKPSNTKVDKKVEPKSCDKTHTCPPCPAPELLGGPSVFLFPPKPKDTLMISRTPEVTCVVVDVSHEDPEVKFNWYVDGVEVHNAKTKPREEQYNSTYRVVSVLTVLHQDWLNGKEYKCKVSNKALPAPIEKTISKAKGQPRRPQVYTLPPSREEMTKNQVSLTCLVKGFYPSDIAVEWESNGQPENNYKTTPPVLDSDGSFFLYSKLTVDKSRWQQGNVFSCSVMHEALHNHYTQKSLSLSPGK
VL: B1 VL
notes: as for B1
As to B4, the “HEK-Blue NFκB reporter assay, co-culture with Raji cells against no Raji cells” value in the data set with FcγRIIB on Raji cells is more than 2 fold. In addition, the binding result in the data set with human OX40 (CD134) is “binds”.

B5: OX40SF2IgG1E430G (antibody)
heavy: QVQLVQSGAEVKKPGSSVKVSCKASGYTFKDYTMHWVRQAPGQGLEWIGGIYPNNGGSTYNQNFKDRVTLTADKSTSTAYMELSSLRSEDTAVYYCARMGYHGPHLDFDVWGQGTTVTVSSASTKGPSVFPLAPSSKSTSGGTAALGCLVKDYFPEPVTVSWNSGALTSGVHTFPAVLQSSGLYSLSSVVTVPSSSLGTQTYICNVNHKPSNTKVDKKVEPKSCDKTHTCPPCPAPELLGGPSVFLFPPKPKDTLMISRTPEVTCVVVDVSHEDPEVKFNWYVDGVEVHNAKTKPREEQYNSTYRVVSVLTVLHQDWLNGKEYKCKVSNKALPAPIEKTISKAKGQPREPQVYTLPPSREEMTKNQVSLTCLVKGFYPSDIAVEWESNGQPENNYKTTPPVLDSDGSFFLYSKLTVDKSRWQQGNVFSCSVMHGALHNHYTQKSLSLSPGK
VL: B1 VL
notes: as for B1
B5: the binding result in the data set with human OX40 (CD134) is on record as “binds”.

B6: OX40SF2IgG1E345R/E430G/S440Y (antibody)
heavy: QVQLVQSGAEVKKPGSSVKVSCKASGYTFKDYTMHWVRQAPGQGLEWIGGIYPNNGGSTYNQNFKDRVTLTADKSTSTAYMELSSLRSEDTAVYYCARMGYHGPHLDFDVWGQGTTVTVSSASTKGPSVFPLAPSSKSTSGGTAALGCLVKDYFPEPVTVSWNSGALTSGVHTFPAVLQSSGLYSLSSVVTVPSSSLGTQTYICNVNHKPSNTKVDKKVEPKSCDKTHTCPPCPAPELLGGPSVFLFPPKPKDTLMISRTPEVTCVVVDVSHEDPEVKFNWYVDGVEVHNAKTKPREEQYNSTYRVVSVLTVLHQDWLNGKEYKCKVSNKALPAPIEKTISKAKGQPRRPQVYTLPPSREEMTKNQVSLTCLVKGFYPSDIAVEWESNGQPENNYKTTPPVLDSDGSFFLYSKLTVDKSRWQQGNVFSCSVMHGALHNHYTQKYLSLSPGK
VL: B1 VL
notes: In the NanoBRET assay the light chains carried a C-terminal Nanoluc or HaloTag; also called OX40SF2E345R/E430G/S440Y
With B6, the binding result in data set [1] and in data set [4] was “binds” each time.

B7: OX40SF2IgG1S267E/L328F (antibody, name in EU numbering)
heavy: not shown
VL: B1 VL
notes: Full IgG1; Positions are EU Index, not positions on the UniProt entry
For B7, the “HEK-Blue NFκB reporter assay, co-culture with Raji cells; efficacy at 1000 ng/ml against OX40 ligand at the same concentration” value in the data set with FcγRIIB on Raji cells was more than 2 fold. Besides, the EC50 amounted to 0.459 µg/mL in data set [3] and 0.216 µg/mL in data set [5]. For the same molecule, the binding result in data set [2] is “no binding (tested: 1 ng/ml to 10000 ng/ml)”. In addition, the “fold better potency (against OX40SF2IgG1, reference implied)” value in data set [5] amounted to 20 fold.

B8: anti-FcγRIIB antibody 2B6 (antibody)
chain 1: QVQLQQPVTELVRPGASVMLSCKASDYPFTNYWIHWVKQRPGQGLEWIGVIDPSDTYPNYNKKFKGKATLTVVVSSSTAYMQLSSLTSDDSAVYYCARNGDSDYYSGMDYWGQGTSVTVSS
chain 2: DILLTQSPAILSVSPGERVSFSCRTSQSIGTNIHWYQQRTNGFPRLLIKNVSESISGIPSRFSGSGSGTDFILSINSVESEDIADYYCQQSNTWPFTFGGGTKLEIK
As to B8, the EC50 in data set [3] is 0.431 µg/mL.
